From patent publication US20210115143A1

Biological target: hPD-L1-Fc fusion protein (made in the filing, Example 1) (human) (UniProt Q9NZQ7)
Test: SPR, Biacore X100, hPD-L1-Fc on CM5 chip, antibody in solution, 25 C

Chain of hPD-L1-Fc fusion protein (made in the filing, Example 1) (human) (Q9NZQ7 19-238 limits assumed): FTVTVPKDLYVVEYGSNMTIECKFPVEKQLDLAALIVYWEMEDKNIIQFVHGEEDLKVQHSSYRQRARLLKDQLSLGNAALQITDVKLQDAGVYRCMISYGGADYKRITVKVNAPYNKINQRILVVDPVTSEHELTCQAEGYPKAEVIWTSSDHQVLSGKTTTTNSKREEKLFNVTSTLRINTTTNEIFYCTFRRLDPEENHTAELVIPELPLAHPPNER

Kd: 81.9 nM
koff: 0.0137 s⁻¹
kon: 167000 M⁻¹ s⁻¹
B1: B50-6 mAb (anti-hPD-L1, human IgG1, lambda) (antibody, part only; not given: human IgG1 and lambda constants, part only)
heavy, part: QVQLQQSGPGLVKPSQTLSLTCAISGDSVSSTKAAWYWIRQSPSRGLEWLGRTYFRSKWYNDYADSVKSRLTINPDTSKNQFSLQLKSVSPEDTAVYYCARGQYTAFDIWGQGTMVTVSS
light, part: QVQLVQSGAEVKKPASSVKVSCTASGGSFSTYAISWVRQAPGQGLEWMGGIIPIFGTTKYAQRFQGRVTITADESTTTAYMELSSLISDDTALYYCTTSRGFSYGWFDYWGQGTLVTVSS
